Consider one substance from publication PMC5134096.

The target of the assay is soluble manganese peroxidase (MnP) from Irpex lacteus F17 (Irpex lacteus F17). The assay can be described thus: SEC + other: dynamic light scattering; soluble MnP after Ni-NTA; HiLoad 16/60 Superdex 200 in 20 mM Tris-HCl pH 8.0, 200 mM NaCl; SEC peak II, DLS at room temperature at 0.1 mg/ml in the same buffer.

By stoichiometry N is commonly meant the number of molecules, sites or subunits per partner or assembly. Turning to “soluble manganese peroxidase (MnP) from Irpex lacteus F17 (enzyme)”, the stoichiometry N was 2.
